# Reference: patent US10941182 (Amgen, dated 2021)
# Starred links: 1 amine or outer side, 2 acyl side, 3 side chain; linkers in the order of their positions; H or OH if unused. Non-standard residues stand in square brackets, D forms with d. *: point of attachment. AC4Abu = α-carboxy-4-aminobutyric acid, O=C(C(CCN[*:1])C(=O)[*:3])[*:2]; dBip = N[C@H](Cc1ccc(-c2ccccc2)cc1)C(=O)O; Oic = O=C(O)[C@@H]1C[C@@H]2CCCC[C@@H]2N1; Phe(4-Cl) = N[C@@H](Cc1ccc(Cl)cc1)C(=O)O; dPhe(4-Cl) = N[C@H](Cc1ccc(Cl)cc1)C(=O)O; Heptadecanoyl = CCCCCCCCCCCCCCCCC(=O)*; Phe(4-I) = N[C@@H](Cc1ccc(I)cc1)C(=O)O; γGlu = O=C(O)[C@H](CCC(=O)[*:2])N[*:1]; C12 diacid = O=C(O)CCCCCCCCCCC(=O)*; NMeR = CN[C@@H](CCCNC(=N)N)C(=O)O; hArg = N=C(N)NCCCC[C@H](N)C(=O)O; Cha = N[C@@H](CC1CCCCC1)C(=O)O; NMeL = CN[C@@H](CC(C)C)C(=O)O; Nle = CCCC[C@H](N)C(=O)O; Hexanoyl = CCCCCC(=O)*; AEEA = NCCOCCOCC(=O)O; Aib = CC(C)(N)C(=O)O; Mpa = O=C(O)CCS
# T1: rat APJ receptor (rat, UniProt Q9JHG3 1-377)
# T1 sequence (looked up): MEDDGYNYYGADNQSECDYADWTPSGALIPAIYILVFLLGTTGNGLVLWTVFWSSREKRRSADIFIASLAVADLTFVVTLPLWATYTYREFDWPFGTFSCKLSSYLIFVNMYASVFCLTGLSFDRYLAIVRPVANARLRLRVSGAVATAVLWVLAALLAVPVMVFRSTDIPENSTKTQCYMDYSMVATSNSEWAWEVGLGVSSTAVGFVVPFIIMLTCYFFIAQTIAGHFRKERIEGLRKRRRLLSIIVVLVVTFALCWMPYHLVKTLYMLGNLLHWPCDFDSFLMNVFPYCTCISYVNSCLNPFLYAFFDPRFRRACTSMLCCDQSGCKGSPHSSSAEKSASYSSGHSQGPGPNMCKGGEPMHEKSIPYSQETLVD
# T2: human APJ receptor (human, UniProt P35414 1-380)
# T2 sequence (looked up): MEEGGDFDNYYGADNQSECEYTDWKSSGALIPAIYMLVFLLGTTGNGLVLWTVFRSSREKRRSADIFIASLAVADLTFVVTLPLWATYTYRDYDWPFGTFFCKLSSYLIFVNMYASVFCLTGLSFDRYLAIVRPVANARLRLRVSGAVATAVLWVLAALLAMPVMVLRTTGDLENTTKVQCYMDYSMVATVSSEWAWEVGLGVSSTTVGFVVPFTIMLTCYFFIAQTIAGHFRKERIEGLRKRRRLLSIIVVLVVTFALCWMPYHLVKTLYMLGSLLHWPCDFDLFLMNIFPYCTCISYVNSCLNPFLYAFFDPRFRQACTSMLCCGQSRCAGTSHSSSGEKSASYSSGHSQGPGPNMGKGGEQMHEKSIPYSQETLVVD
# B1: SEQ ID NO: 63 (peptide)
# peptide: Ac-RQRPR[Cha]SHKGP[Nle]P[Phe(4-Cl)]-OH
# SMILES: CCCC[C@H](NC(=O)[C@@H]1CCCN1C(=O)CNC(=O)[C@H](CCCCN)NC(=O)[C@H](Cc1c[nH]cn1)NC(=O)[C@H](CO)NC(=O)[C@H](CC1CCCCC1)NC(=O)[C@H](CCCNC(=N)N)NC(=O)[C@@H]1CCCN1C(=O)[C@H](CCCNC(=N)N)NC(=O)[C@H](CCC(N)=O)NC(=O)[C@H](CCCNC(=N)N)NC(C)=O)C(=O)N1CCC[C@H]1C(=O)N[C@@H](Cc1ccc(Cl)cc1)C(=O)O
# B2: SEQ ID NO: 64 (peptide)
# peptide: Ac-RQRPR[NMeL]SHKGP[Nle]P[Phe(4-Cl)]-OH
# SMILES: CCCC[C@H](NC(=O)[C@@H]1CCCN1C(=O)CNC(=O)[C@H](CCCCN)NC(=O)[C@H](Cc1c[nH]cn1)NC(=O)[C@H](CO)NC(=O)[C@H](CC(C)C)N(C)C(=O)[C@H](CCCNC(=N)N)NC(=O)[C@@H]1CCCN1C(=O)[C@H](CCCNC(=N)N)NC(=O)[C@H](CCC(N)=O)NC(=O)[C@H](CCCNC(=N)N)NC(C)=O)C(=O)N1CCC[C@H]1C(=O)N[C@@H](Cc1ccc(Cl)cc1)C(=O)O
# B3: SEQ ID NO: 62 (peptide)
# peptide: Ac-RQRPRLSHKGP[Nle]P[dBip]-OH
# SMILES: CCCC[C@H](NC(=O)[C@@H]1CCCN1C(=O)CNC(=O)[C@H](CCCCN)NC(=O)[C@H](Cc1c[nH]cn1)NC(=O)[C@H](CO)NC(=O)[C@H](CC(C)C)NC(=O)[C@H](CCCNC(=N)N)NC(=O)[C@@H]1CCCN1C(=O)[C@H](CCCNC(=N)N)NC(=O)[C@H](CCC(N)=O)NC(=O)[C@H](CCCNC(=N)N)NC(C)=O)C(=O)N1CCC[C@H]1C(=O)N[C@H](Cc1ccc(-c2ccccc2)cc1)C(=O)O
# B4: SEQ ID NO: 94 (peptide)
# peptide: SDFYKRLINKAKXXRRQRPRLSHKGXFPX
# modifications: {Acetyl-NH}SDFYKRLINKAK[Aeea][Aeea][hArg]rQ[hArg]Pr[NMeLeu]SHKG[Oic][pI-Phe]P[D-Bip]{COOH}
# B5: SEQ ID NO: 349 (peptide)
# peptide: {C12 diacid}-[γGlu][AEEA][AEEA]Q[hArg]P[dR][NMeL]SHKG[Oic][Phe(4-I)]P[dBip]-OH
# SMILES: CC(C)C[C@@H](C(=O)N[C@@H](CO)C(=O)N[C@@H](Cc1c[nH]cn1)C(=O)N[C@@H](CCCCN)C(=O)NCC(=O)N1[C@H](C(=O)N[C@@H](Cc2ccc(I)cc2)C(=O)N2CCC[C@H]2C(=O)N[C@H](Cc2ccc(-c3ccccc3)cc2)C(=O)O)C[C@@H]2CCCC[C@@H]21)N(C)C(=O)[C@@H](CCCNC(=N)N)NC(=O)[C@@H]1CCCN1C(=O)[C@H](CCCCNC(=N)N)NC(=O)[C@H](CCC(N)=O)NC(=O)COCCOCCNC(=O)COCCOCCNC(=O)CC[C@H](NC(=O)CCCCCCCCCCC(=O)O)C(=O)O
# B6: SEQ ID NO: 591 (peptide)
# peptide: XXXQRPRLSHKGPXPF
# modifications: {Dodecanoyl-NH}[AC4Abu][Aeea][Aeea]QRP[NMeArg]LSHKGP[Nle]P[4-Cl-F]{COOH}
# B7: SEQ ID NO: 111 (peptide)
# peptide: {mPEG 10 kDa acetamide}-[Mpa][dQ][hArg]P[NMeR][Cha]SHKG[Oic][Nle]P[dPhe(4-Cl)]-OH
# modifications: numbers in words are those of the source; also: N-terminus written {H2}
# B8: SEQ ID NO: 112 (peptide)
# peptide: QRPRLSHKGPXPF
# modifications: {H2}[MerPr](10K mPEG acetamide)Q[hArg]P[NMeArg][aMeLeu]SHKGP[Nle]P[4-Cl-F]{COOH}
# B9: SEQ ID NO: 113 (peptide)
# peptide: QRPRLSHKGPXPF
# modifications: {H2}[MerPr](10K mPEG acetamide)Q[hArg]P[NMehArg]LSHKGP[Nle]P[4-Cl-F]{COOH}
# B10: SEQ ID NO: 114 (peptide)
# peptide: QRPRLSHKGPXPF
# modifications: {H2}[MerPr](10K mPEG acetamide)QR[aMePro][hArg][aMeLeu]SHKGP[Nle]P[4-Cl-F]{COOH}
# B11: SEQ ID NO: 117 (peptide)
# peptide: QRPRLSHKGPXPF
# modifications: {H2}[MerPr](10K mPEG acetamide)QRP[hArg][aMeLeu]SHKGP[Nle]P[4-Cl-F]{COOH}
# B12: SEQ ID NO: 119 (peptide)
# peptide: QRPRLSHKGPXPF
# modifications: {H2}[MerPr](10K mPEG acetamide)QrP[hArg][aMeLeu]SHKGP[Nle]P[4-Cl-F]{COOH}
# B13: SEQ ID NO: 120 (peptide)
# peptide: {10K mPEG acetamide}-[Mpa]QRP[NMeR][Cha]SHKG[Oic][Nle][Aib][Phe(4-Cl)]-OH
# B14: SEQ ID NO: 115 (peptide)
# peptide: QRPRLSHKGPXPF
# modifications: {H2}[MerPr](10K mPEG acetamide)QRP[NMeArg]LSHKGP[Nle]P[4-Cl-F]{COOH}
# B15: SEQ ID NO: 116 (peptide)
# peptide: QRPRLSHKGPXPF
# modifications: {H2}[MerPr](10K mPEG acetamide)Q[NMehArg]P[NMeArg][aMeLeu]SHKGP[Nle]P[4-Cl-F]{COOH}
# B16: SEQ ID NO: 12 (peptide)
# peptide: H-KFRRQRPRLSHKGPMP-OH
# B17: SEQ ID NO: 14 (peptide)
# peptide: KLRKHNXLQRRXMPLHSRVPFP
# modifications: {H2}KLRKHN[Abu]LQRR[Abu]MPLHSRVPFP{COOH}
# B18: SEQ ID NO: 576 (peptide)
# peptide: Heptadecanoyl-[AC4Abu][AEEA][AEEA][dQ]RP[NMeR][Cha]SHKG[Oic][Nle]P[dPhe(4-Cl)]-OH
# SMILES: CCCCCCCCCCCCCCCCC(=O)NCCC(C(=O)O)C(=O)NCCOCCOCC(=O)NCCOCCOCC(=O)N[C@H](CCC(N)=O)C(=O)N[C@@H](CCCNC(=N)N)C(=O)N1CCC[C@H]1C(=O)N(C)[C@@H](CCCNC(=N)N)C(=O)N[C@@H](CC1CCCCC1)C(=O)N[C@@H](CO)C(=O)N[C@@H](Cc1c[nH]cn1)C(=O)N[C@@H](CCCCN)C(=O)NCC(=O)N1[C@H](C(=O)N[C@@H](CCCC)C(=O)N2CCC[C@H]2C(=O)N[C@H](Cc2ccc(Cl)cc2)C(=O)O)C[C@@H]2CCCC[C@@H]21
# B19: SEQ ID NO: 496 (peptide)
# peptide: XXXQRPRLSHKGPXPF
# modifications: {HDA}[AC4Abu][Aeea][Aeea]QRP[NMeArg]LSHKGP[Nle]P[4-Cl-F]{COOH}
# B20: SEQ ID NO: 506 (peptide)
# peptide: Hexanoyl-[γGlu][AEEA][AEEA][AEEA][hArg]Q[hArg]P[NMeR][Cha]SHKG[Oic][Nle]P[Phe(4-Cl)]-OH
# SMILES: CCCCCC(=O)N[C@@H](CCC(=O)NCCOCCOCC(=O)NCCOCCOCC(=O)NCCOCCOCC(=O)N[C@@H](CCCCNC(=N)N)C(=O)N[C@@H](CCC(N)=O)C(=O)N[C@@H](CCCCNC(=N)N)C(=O)N1CCC[C@H]1C(=O)N(C)[C@@H](CCCNC(=N)N)C(=O)N[C@@H](CC1CCCCC1)C(=O)N[C@@H](CO)C(=O)N[C@@H](Cc1c[nH]cn1)C(=O)N[C@@H](CCCCN)C(=O)NCC(=O)N1[C@H](C(=O)N[C@@H](CCCC)C(=O)N2CCC[C@H]2C(=O)N[C@@H](Cc2ccc(Cl)cc2)C(=O)O)C[C@@H]2CCCC[C@@H]21)C(=O)O
# Target: T1, rat APJ receptor
# Assay: cell-based or functional assay
row,Binder,EC50 Rat APJ Receptor [nM]
1,B1,0.164
2,B2,0.411
3,B3,3.43
4,B4,1.33
5,B5,47.8
6,B6,1.84
7,B7,777
8,B8,10.4
9,B9,49.3
10,B10,3.46
11,B11,117
12,B12,141
13,B13,258
14,B14,6.49
15,B15,40.8
16,B16,5.81
17,B17,32.4
18,B18,5.17
19,B19,0.481
20,B20,13.2

# Target: T2, human APJ receptor
# Assay: cell-based or functional assay
row,Binder,EC50 Human APJ Receptor [nM]
1,B1,0.036
2,B2,0.0555
3,B3,0.303
4,B4,1.34
5,B5,64
6,B6,0.476
7,B7,1100
8,B8,2.32
9,B9,12.1
10,B10,0.848
11,B11,19.7
12,B12,25.6
13,B13,63.2
14,B14,1.66
15,B15,9.71
16,B16,1.42
17,B17,0.301
18,B18,3.33
19,B19,0.0874
20,B20,3.49
